In paper PMC4534130:
Like-named read-outs stand apart in the source and are kept apart here.

What was measured:
[1] = biological target: Human FcγRIIIa_V158 (human)
[2] = biological target: Human FcγRIIIa_V158 (human); remark: listed apart in the source

| relative ADCC activity (NK cell line expressing FcγRIIIa V158; target cells expressing a receptor of the EGFR family; relative to a reference material set to 100%) [1] [%] | relative ADCC activity (NK cell line expressing FcγRIIIa V158; target cells expressing a receptor of the EGFR family; relative to a reference material set to 100%) [2] [%] | Substance |
| --- | --- | --- |
| 115 | – | IgG1, di-sialylated variant (antibody) |
| – | 118 | IgG1, hyper-galactosylated variant (antibody) |
| – | 66 | IgG1, hypo-galactosylated variant (antibody) |
| 104 | – | IgG1, mono-sialylated variant (antibody) |
